Like-named read-outs stand apart in the source and are kept apart here.
B1: 44bp dsRNA (dsRNA)
RNA 1: CGAGCAGACUGGCAAUCCGGAUCUCCCAGGCCCGGCUUUCAAGC
RNA 2: GCUUGAAAGCCGGGCCUGGGAGAUCCGGAUUGCCAGUCUGCUCG
modifications: strand 2 5' amino modifier C6 (5AmMC6)
B2: LGP2 (FLAG-tagged) (natural protein, UniProt Q96C10 1-678, looked up)
chain: MELRSYQWEVIMPALEGKNIIIWLPTGAGKTRAAAYVAKRHLETVDGAKVVVLVNRVHLVTQHGEEFRRMLDGRWTVTTLSGDMGPRAGFGHLARCHDLLICTAELLQMALTSPEEEEHVELTVFSLIVVDECHHTHKDTVYNVIMSQYLELKLQRAQPLPQVLGLTASPGTGGASKLDGAINHVLQLCANLDTWCIMSPQNCCPQLQEHSQQPCKQYNLCHRRSQDPFGDLLKKLMDQIHDHLEMPELSRKFGTQMYEQQVVKLSEAAALAGLQEQRVYALHLRRYNDALLIHDTVRAVDALAALQDFYHREHVTKTQILCAERRLLALFDDRKNELAHLATHGPENPKLEMLEKILQRQFSSSNSPRGIIFTRTRQSAHSLLLWLQQQQGLQTVDIRAQLLIGAGNSSQSTHMTQRDQQEVIQKFQDGTLNLLVATSVAEEGLDIPHCNVVVRYGLLTNEISMVQARGRARADQSVYAFVATEGSRELKRELINEALETLMEQAVAAVQKMDQAEYQAKIRDLQQAALTKRAAQAAQRENQRQQFPVEHVQLLCINCMVAVGHGSDLRKVEGTHHVNVNPNFSNYYNVSRDPVVINKVFKDWKPGGVISCRNCGEVWGLQMIYKSVKLPVLKVRSMLLETPQGRIQAKKWSRVPFSVPDFDFLQHCAENLSDLSLD

Key:
MDA5-C [1] = target: T1, MDA5-C (UniProt Q9BYX4 295-1025); assay: single-molecule TIRF
T1 sequence: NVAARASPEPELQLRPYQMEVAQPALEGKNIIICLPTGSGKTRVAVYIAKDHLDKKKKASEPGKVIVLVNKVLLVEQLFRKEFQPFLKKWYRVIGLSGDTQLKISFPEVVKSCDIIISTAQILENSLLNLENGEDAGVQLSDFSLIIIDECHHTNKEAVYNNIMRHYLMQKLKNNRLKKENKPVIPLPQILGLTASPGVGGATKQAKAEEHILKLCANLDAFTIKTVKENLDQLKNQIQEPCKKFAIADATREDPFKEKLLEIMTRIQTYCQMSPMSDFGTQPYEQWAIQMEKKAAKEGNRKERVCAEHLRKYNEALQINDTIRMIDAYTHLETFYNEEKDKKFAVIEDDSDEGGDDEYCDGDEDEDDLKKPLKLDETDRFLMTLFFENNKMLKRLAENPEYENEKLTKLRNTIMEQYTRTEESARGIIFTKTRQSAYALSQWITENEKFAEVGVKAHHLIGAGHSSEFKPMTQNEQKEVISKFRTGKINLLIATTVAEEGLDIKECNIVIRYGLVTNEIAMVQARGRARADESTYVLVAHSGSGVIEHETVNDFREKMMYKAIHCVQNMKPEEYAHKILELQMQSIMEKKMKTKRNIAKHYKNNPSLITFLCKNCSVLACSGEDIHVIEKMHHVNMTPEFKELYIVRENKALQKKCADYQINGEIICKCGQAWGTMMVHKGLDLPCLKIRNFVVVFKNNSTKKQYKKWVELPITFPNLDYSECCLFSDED

LGP2 = target: T2, LGP2 (UniProt Q96C10 1-678); assay: single-molecule TIRF
T2 sequence: B2 chain

MDA5-C [2] = target: T1, MDA5-C; assay: single-molecule TIRF; remark: listed apart in the source
[3] = target: T3, MDA5 (full length, FLAG-tagged) (UniProt Q9BYX4 1-1025); assay: co-IP
T3 sequence (looked up): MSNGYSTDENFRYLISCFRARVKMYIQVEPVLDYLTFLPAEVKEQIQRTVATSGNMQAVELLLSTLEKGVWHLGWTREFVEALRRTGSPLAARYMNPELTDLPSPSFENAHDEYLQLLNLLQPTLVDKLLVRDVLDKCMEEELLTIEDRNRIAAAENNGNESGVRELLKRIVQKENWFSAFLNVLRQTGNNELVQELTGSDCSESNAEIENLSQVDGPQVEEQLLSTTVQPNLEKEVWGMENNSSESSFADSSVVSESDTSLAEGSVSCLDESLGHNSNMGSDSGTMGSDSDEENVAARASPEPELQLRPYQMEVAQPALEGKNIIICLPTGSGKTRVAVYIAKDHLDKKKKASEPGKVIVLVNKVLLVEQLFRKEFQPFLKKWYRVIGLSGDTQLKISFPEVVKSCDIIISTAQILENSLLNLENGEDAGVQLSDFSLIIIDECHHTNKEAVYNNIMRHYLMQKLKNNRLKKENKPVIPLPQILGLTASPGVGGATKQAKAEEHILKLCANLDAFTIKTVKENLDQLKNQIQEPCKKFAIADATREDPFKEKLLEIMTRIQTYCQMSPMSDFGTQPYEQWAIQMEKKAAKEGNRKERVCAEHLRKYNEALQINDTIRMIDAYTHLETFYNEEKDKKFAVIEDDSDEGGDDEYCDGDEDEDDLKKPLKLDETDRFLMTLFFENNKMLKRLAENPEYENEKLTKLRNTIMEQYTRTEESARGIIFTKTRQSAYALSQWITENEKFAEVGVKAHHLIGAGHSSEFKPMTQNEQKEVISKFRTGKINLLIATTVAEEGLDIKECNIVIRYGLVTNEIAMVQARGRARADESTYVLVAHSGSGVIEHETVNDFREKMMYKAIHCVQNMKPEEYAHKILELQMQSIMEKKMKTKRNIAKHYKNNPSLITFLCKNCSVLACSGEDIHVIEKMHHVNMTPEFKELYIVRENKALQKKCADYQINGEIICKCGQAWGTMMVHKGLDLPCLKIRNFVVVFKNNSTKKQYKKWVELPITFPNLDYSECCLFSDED

Row | Binder | Kd (MDA5-C [1]) [nM] | Kd (LGP2) [nM] | Kd (MDA5-C [2]) [nM] | fold increase of co-precipitated LGP2 with poly(I:C) against without poly(I:C) [3] [fold]
1 | B1 | 326 ± 138 | 56.1 ± 10 | 771 ± 207 | 
2 | B2 |  |  |  | > 3
